{"source": "the supplement of paper PMC9170038"}
{"tested_on": "MS2 coat protein", "assay": "apparent KD of MS2 coat protein; higher = weaker reporter binding", "conditions": "Eterna round: R107; input ligand: theophylline 20 uM", "procedure": "(§1)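 RNA-MaP round R107: designed RNA switches with theophylline, tryptophan, arginine or FMN aptamers are transcribed on-chip within common flanks. They are titrated with SNAP-549-labelled MS2 coat protein in RNA-MaP buffer (100 mM Tris pH 7.5, 80 mM KCl, 4 mM MgCl2), without ligand or with the indicated ligand. Median apparent KD per design.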", "units": {"apparent KD of MS2 coat protein": "nM"}}
{"sequence": "AGUAGUUGACAAAAGUCAGCUACAACUGAAGGAGCGGGUGGGUGCCCAGGUAGGUCGCGGAAACAUGAGGAUCACCCAUGUAUAA [ArgAS 1 #BothOrNeither #OpenEnded]", "apparent KD of MS2 coat protein": 19.4}
{"sequence": "UGUAUGUGAUUUGAUACCAGACCAGCUGGUGGUACCUGAGGAUCACCCAGGUAGGUUUGGGUCCCUUGGCAGCAAAUCGCAUACU [SS Theo B #24 Ms6]", "apparent KD of MS2 coat protein": 23.8}
{"sequence": "GGGACAUCGGGAAGGAGCGCAUCCAAACCACACAUGAGGAUCACCCAUGUAUAAAUAUGCAUGCAGGUAGGUCGCCCGGUGCCUC [Axeenza]", "apparent KD of MS2 coat protein": 131}
{"sequence": "UGACAUUGCUCAGAUACCAGACUUGAGGAUCACCCAAGUGCCAACAAGUAUAUAAUAAAAGUCCCUUGGCAGCUGAGCAAUGUCU [TheoBX 18#MS2Left #AlternativeMS2 #Theo2]", "apparent KD of MS2 coat protein": 28.6}
{"sequence": "GGAGGUGAGAGAAGGAGCGGAAGUUUCGUUACAACAUGAGGAUCACCCAUGUAACGUUUAGUCCAGGUAGGUCGCUCUCGGGCGG [jbbgmullin]", "apparent KD of MS2 coat protein": 25.2}
{"sequence": "AGAUUUAUUCUGACCGGGCUCAUUCCUGAAGGAGCGCAGAACAAUGCAGGUAGGUCGCAGGACAUGAGGAUCACCCAUGUCAGGC [Inmainzais]", "apparent KD of MS2 coat protein": 30.2}
{"sequence": "UAACAUGAGGAUCACCCAUGUUUAGAUGAACGAGGACCGGUACGGCCGCCACUCGAUAAGUGGAAGAAACGAGGGAUUGUAUGAU [Same State Trp A GF2]", "apparent KD of MS2 coat protein": 15.1}
{"sequence": "GCUACAUGAGGAUCACCCAUGUAUGCGAGCCGAGGACCGGUACGGCCGCCACUCGCUUAACAUGAGGAUCACCCAUGUUGCUCGG [SSTA DOUBLE!!! :-D #17]", "apparent KD of MS2 coat protein": 77.8}
{"sequence": "GGACUAACCAGAAGGAGCGGCACAGCAGAAACUGCAAAUCCUCCGCACGAGGAUCACCCGUGUCAGGUAGGUCGCUGGUUAGUCG [ArgBX 28]", "apparent KD of MS2 coat protein": 55.4}
{"sequence": "UUUUUCGCGGGUGAUACCAGCAAAGCUGUACUGGUCUGGUACAUGAGGAUCACCCAUGUUUGCCCUUGGCAGCGCUCGGGAGAAG [#21 Exclusion-TheophyllineB]", "apparent KD of MS2 coat protein": 47.9}
{"sequence": "GCUAGUGGCAGAAGGAGCGAGGCUACAUACGGGUACAUGAGGAUCACCCAUGUGGUGUGUACUCAGGUAGGUCGCUGCCACUAGC [SSAB NP+V+V2 #13 Same Structure]", "apparent KD of MS2 coat protein": 754}
{"sequence": "AAGGUGAUCCCAGAUACCAGCUUAACAUGAGGAUCACCCAUGUAACGGACGAAAGUCCGGAGCCCUUGGCAGCUGGGUUGCCAAG [SSTheo B #14]", "apparent KD of MS2 coat protein": 305}
{"sequence": "AUGUCGUUGAAUAUAGCGGCUUGGUGUGAUACCAGAAUGAUCAAAUUCCCUUGGCAGCAUUACAUGAGGAUCACCCAUGUUUAGG [SSTheo A #18]", "apparent KD of MS2 coat protein": 30.2}
{"sequence": "UCACAUGAGGAUCACCCAUGUGUCAGAGAAGGAGCGGCCGCAAGGCCAGGUAGGUCGCUCAGGUAGCGUGAGGAUCACCCGUGUG [#1 Exclusion - Arginine A Attempt #10 (Inspired by cyborg)]", "apparent KD of MS2 coat protein": 213}
{"sequence": "GGGUGCGGGUGAAGGAGCGUGAAGACAUGAGGAUCACCCAUGUAGAGGCCCGAACAGGGUUCGCAGGUAGGUCGCACCCGUGCCC [#1 Same State - Arginine B Attempt #3 (HarryS)]", "apparent KD of MS2 coat protein": 22.8}
{"sequence": "GGGAGGGAGGCGGCCGCCACUGAUUUUCAUAUAUAUAUAACAUGAGGAUCACCCAUGUGGAUAUGCAGGACCGGGCCUUUUUUUU [aaaJ]", "apparent KD of MS2 coat protein": 18.8}
{"sequence": "ACAUAGAGAUUAAUCGUGGGCAUACUCGAUACCAGUAUUUUAACCUACCCUUGGCAGCGACAUGAGGAUCACCCAUGUGAGAUGA [XTheo A #9]", "apparent KD of MS2 coat protein": 25.1}
{"sequence": "GUGCGGUCUGAUGAUACCAGAUGUGGUGGGAACAUGAGGAUCACCCAUGUUGUGAGGCAGGUCCCUUGGCAGCAUGAGUGAGCUU [TheoB-ms2@32-2]", "apparent KD of MS2 coat protein": 229}
{"sequence": "UGUAUGUGAUCUGAUACCAGCUUAAUAGCUUGAGGAUCACCCAAGUGGAGCGGAAACGCUAGCCCUUGGCAGCAGAUCGCAUACU [Denovo 10 #StaticStem #AlternativeMS2]", "apparent KD of MS2 coat protein": 104}
{"sequence": "UGUUUUAAAAGUGAUACCAGACAAACAUGAGGAUCACCCAUGUAACAUGAGAGAUAAUAAGUCCCUUGGCAGCACAUAAUUAGUA [JR_Nu_SSTheophyB_Sub028]", "apparent KD of MS2 coat protein": 33.1}
{"sequence": "GGUUGGUCCUCACAUGAGGAUCACCCAUGUCGAGGACCGGUACGGCCGCCACUCGAUUGUACCAGGGCUUAAGAGCCUAUGAGCA [Erenedquce]", "apparent KD of MS2 coat protein": 23.9}
{"sequence": "AAACGCUAUGCGGCCGCCACUAAGGUUGGCGUCUAUGUCGUUUAAGACAUGAGGAUCACCCAUGUUAGGACCGGGCAUGUCCGCG [theeternabot_exclusion_MS2_Trp_B_25]", "apparent KD of MS2 coat protein": 22.9}
{"sequence": "GUAGCGACGACGGCCGCCACUCACACGAGAGGGUAGACCAACCUUCACAUGAGGAUCACCCAUGUGAGGACCGGGUUGUCGGUAC [Exclusion - Tryptophan B]", "apparent KD of MS2 coat protein": 26.6}
{"tested_on": "MS2 coat protein", "assay": "apparent KD of MS2 coat protein; higher = weaker reporter binding", "conditions": "Eterna round: R107; input ligand: theophylline 2 mM", "procedure": "as §1", "units": {"apparent KD of MS2 coat protein": "nM"}}
{"sequence": "AGAUGUAGCGGAAGGAGCGACAUGAGGAUCACCCAUGUCUCCCGUUAUGGGAGUUCCUUAGGUCAGGUAGGUCGCCGUUACGUCA [Omei Arg B SS B v1]", "apparent KD of MS2 coat protein": 226}
{"sequence": "UUCAGCUAGUCGGCCGCCACUGCUUGAGGAUCACCCAAGUAGGUCCACACUGCUUCGGCAGUGAGUAGGACCGGGACUAGCUGAG", "apparent KD of MS2 coat protein": 10.1}
{"sequence": "AAUAGUCCUCGACAUGGGUAUCACCCAUGUCGAGGACCGGUACGGCCGCCACUCGACAUGAGGAUCACCCAUGUUGAGUGAUAAA [prototype 1.1]", "apparent KD of MS2 coat protein": 9.31}
{"sequence": "GAUAUAUAUCGAAGGAGCGGCCCUUGAUCCUCAUGAGACAUGAGGAUCACCCAUGUCUCGGGCCAGGUAGGUCGCGAUAUAUAUC [Astros-omei-mod2]", "apparent KD of MS2 coat protein": 24.2}
{"sequence": "ACACACAUGAGGAUCACCCAUGUCUAUAUACGAGGACCGGUACGGCCGCCACUCGUGAGAUCGCGAGAGACAGCUUUGGGCUAGU [theeternabot_sameState_MS2_Trp_A_37]", "apparent KD of MS2 coat protein": 19}
{"sequence": "ACGCACAUGAGGAUCACCCAUGUGAACCUACGAGGACCGGUACGGCCGCCACUCGCUGUUCCUACCGGCUUAAUUGUCACUGGGU [theeternabot_sameState_MS2_Trp_A_19]", "apparent KD of MS2 coat protein": 49}
{"sequence": "CAAGAACAGCCGAAUCUCGGCAGCUGAGAAGGAGCGCGAGAAGUCGCAGGUAGGUCGCUCAGGAAUACAUGAGGAUCACCCAUGU [Usaronen]", "apparent KD of MS2 coat protein": 46.8}
{"sequence": "UAAUAAAUAAAUCCAAGGUGAAGGUCAGAUACCAGCCAGAUAACUGGCCCUUGGCAGCUGAAUAAUCAUGAGGAUCACCCAUGAA [TheoAS 25 #OpenEnded #MS2Late #AlternativeMS2]", "apparent KD of MS2 coat protein": 63.9}
{"sequence": "UACCGAGAGGGAAGGAGCGCGAUAACAUAACAUGAGGAUCACCCAUGUAAGAAAUUAAUCAUGCAGGUAGGUCGCCCAAGCGGAU [Same State Arginine B GF 2]", "apparent KD of MS2 coat protein": 15.8}
{"sequence": "AGUAGUUGACAAAAGUCAGCUACAACUGAAGGAGCGGGUGGGUGCCCAGGUAGGUCGCGGAAACAUGAGGAUCACCCAUGUAUAA [ArgAS 1 #BothOrNeither #OpenEnded]", "apparent KD of MS2 coat protein": 21.7}
{"sequence": "UGUAUGUGAUUUGAUACCAGACCAGCUGGUGGUACCUGAGGAUCACCCAGGUAGGUUUGGGUCCCUUGGCAGCAAAUCGCAUACU [SS Theo B #24 Ms6]", "apparent KD of MS2 coat protein": 11.4}
{"sequence": "GGGACAUCGGGAAGGAGCGCAUCCAAACCACACAUGAGGAUCACCCAUGUAUAAAUAUGCAUGCAGGUAGGUCGCCCGGUGCCUC [Axeenza]", "apparent KD of MS2 coat protein": 123}
{"sequence": "UGACAUUGCUCAGAUACCAGACUUGAGGAUCACCCAAGUGCCAACAAGUAUAUAAUAAAAGUCCCUUGGCAGCUGAGCAAUGUCU [TheoBX 18#MS2Left #AlternativeMS2 #Theo2]", "apparent KD of MS2 coat protein": 137}
{"sequence": "GGAGGUGAGAGAAGGAGCGGAAGUUUCGUUACAACAUGAGGAUCACCCAUGUAACGUUUAGUCCAGGUAGGUCGCUCUCGGGCGG [jbbgmullin]", "apparent KD of MS2 coat protein": 30.7}
{"sequence": "AGAUUUAUUCUGACCGGGCUCAUUCCUGAAGGAGCGCAGAACAAUGCAGGUAGGUCGCAGGACAUGAGGAUCACCCAUGUCAGGC [Inmainzais]", "apparent KD of MS2 coat protein": 27.2}
{"sequence": "UAACAUGAGGAUCACCCAUGUUUAGAUGAACGAGGACCGGUACGGCCGCCACUCGAUAAGUGGAAGAAACGAGGGAUUGUAUGAU [Same State Trp A GF2]", "apparent KD of MS2 coat protein": 18.8}
{"sequence": "GCUACAUGAGGAUCACCCAUGUAUGCGAGCCGAGGACCGGUACGGCCGCCACUCGCUUAACAUGAGGAUCACCCAUGUUGCUCGG [SSTA DOUBLE!!! :-D #17]", "apparent KD of MS2 coat protein": 55.1}
